Measured values reported in US20240270840A1 (NECTIN THERAPEUTICS, published 2024).

T1: Human CD112R (PVRIG) (human, UniProt Q6DKI7 41-171, limits assumed)
T1 sequence (looked up): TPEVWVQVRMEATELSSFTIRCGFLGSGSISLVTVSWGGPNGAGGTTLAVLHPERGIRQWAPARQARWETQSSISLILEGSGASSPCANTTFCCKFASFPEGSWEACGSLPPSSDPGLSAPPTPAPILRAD


Assays:
Human CD112R (PVRIG) [1] = target: T1, Human CD112R (PVRIG); assay: SPR (Biacore); purified full antibody; * limit of the Biacore instrument sensitivity
Human CD112R (PVRIG) [2] = target: T1, Human CD112R (PVRIG); assay: binding kinetics to human CD112R (Table 4; scFv variants by paragraph 288)
Human CD112R (PVRIG) [3] = target: T1, Human CD112R (PVRIG); assay: SPR (Biacore); purified full antibody

Binder	Kd (Human CD112R (PVRIG) [1]) [pM]	Relative Kd (against VH0K0 N28T) (Human CD112R (PVRIG) [1])	koff (Human CD112R (PVRIG) [1]) [s⁻¹]	kon (Human CD112R (PVRIG) [1]) [M⁻¹ s⁻¹]	Kd (Human CD112R (PVRIG) [3]) [pM]	Relative Kd (against VH0K0 N28T) (Human CD112R (PVRIG) [3])	koff (Human CD112R (PVRIG) [3]) [s⁻¹]	kon (Human CD112R (PVRIG) [3]) [M⁻¹ s⁻¹]	also measured
VH0K1 N28T (antibody, V domains shown) VH: QVQLQQPGAELVKPGTSVKLSCKASGYTFTSYWINWVKLRPGQGLEWIGDIYPGSYIPNYNEKFKNKATLTVDTSSSTAYMQLTSLASEDSALYYCAGGYFDVWGAGTTVTVSS VL: DIVMTQSPDSLSVSLGERATINCKSSQSLLSSGNQKNYLAWYQQKPGQPPKLLIYGASTRESGVPDRFTGSGSGTDFTLTISSLQAEDVAVYYCQNDHSYPYTFGQGTKLEIK	25.9	0.21	8.3e-06	320000	–	–	–	–	–
VH11K2 as tested in Table 4 (humanized scFv variant) (scFv, V domains shown, Format as for m33) VH: QVQLVQSGAEVKKPGSSVKVSCKASGYTFTSYWINWVRQAPGQGLEWIGDIYPGSYIPNYNEKFKNRATLTVDTSASTAYMELSSLRSEDTAVYYCAGGYFDVWGQGTTVTVSS VL: DIVMTQSPDSLAVSLGERATINCKSSQSLLSSGNQKNYLAWYQQKPGQPPKLLIYGASTRESGVPDRFTGSGSGTDFTLTISSLQAEDVAVYYCQNDHSYPYTFGQGTKLEIK	–	–	–	–	–	–	–	–	Kd (Human CD112R (PVRIG) [2]): 191 pM; Relative Kd (against VH0K0) (Human CD112R (PVRIG) [2]): 0.62; koff (Human CD112R (PVRIG) [2]): 0.000105 s⁻¹; kon (Human CD112R (PVRIG) [2]): 552000 M⁻¹ s⁻¹
VH10K1 (antibody, V domains shown) VH: QVQLVQSGAEVKKPGSSVKVSCKASGYTFTSYWINWVRQAPGQGLEWIGDIYPGSYIPNYNEKFKNRATLTVDTSASTAYMELSSLASEDTALYYCAGGYFDVWGQGTTVTVSS VL: DIVMTQSPDSLSVSLGERATINCKSSQSLLSSGNQKNYLAWYQQKPGQPPKLLIYGASTRESGVPDRFTGSGSGTDFTLTISSLQAEDVAVYYCQNDHSYPYTFGQGTKLEIK	–	–	–	–	119	0.94	4.18e-05	351000	–
VH10K2 as tested in Table 4 (humanized scFv variant) (scFv, V domains shown) VH: QVQLVQSGAEVKKPGSSVKVSCKASGYTFTSYWINWVRQAPGQGLEWIGDIYPGSYIPNYNEKFKNRATLTVDTSASTAYMELSSLASEDTALYYCAGGYFDVWGQGTTVTVSS VL: DIVMTQSPDSLAVSLGERATINCKSSQSLLSSGNQKNYLAWYQQKPGQPPKLLIYGASTRESGVPDRFTGSGSGTDFTLTISSLQAEDVAVYYCQNDHSYPYTFGQGTKLEIK	–	–	–	–	–	–	–	–	Kd (Human CD112R (PVRIG) [2]): 214 pM; Relative Kd (against VH0K0) (Human CD112R (PVRIG) [2]): 0.7; koff (Human CD112R (PVRIG) [2]): 0.000133 s⁻¹; kon (Human CD112R (PVRIG) [2]): 623000 M⁻¹ s⁻¹
VH9K1 (antibody, V domains shown) VH: QVQLVQSGAEVKKPGSSVKVSCKASGYTFTSYWINWVKLAPGQGLEWIGDIYPGSYIPNYNEKFKNRATLTVDTSASTAYMELSSLRSEDTAVYYCAGGYFDVWGQGTTVTVSS VL: DIVMTQSPDSLSVSLGERATINCKSSQSLLSSGNQKNYLAWYQQKPGQPPKLLIYGASTRESGVPDRFTGSGSGTDFTLTISSLQAEDVAVYYCQNDHSYPYTFGQGTKLEIK	–	–	–	–	111	0.87	3.87e-05	350000	–
VH0K2 N28T (antibody, V domains shown) VH: QVQLQQPGAELVKPGTSVKLSCKASGYTFTSYWINWVKLRPGQGLEWIGDIYPGSYIPNYNEKFKNKATLTVDTSSSTAYMQLTSLASEDSALYYCAGGYFDVWGAGTTVTVSS VL: DIVMTQSPDSLAVSLGERATINCKSSQSLLSSGNQKNYLAWYQQKPGQPPKLLIYGASTRESGVPDRFTGSGSGTDFTLTISSLQAEDVAVYYCQNDHSYPYTFGQGTKLEIK	–	–	–	–	109	0.87	4.34e-05	398000	–
VH9K3 (antibody, V domains shown) VH: QVQLVQSGAEVKKPGSSVKVSCKASGYTFTSYWINWVKLAPGQGLEWIGDIYPGSYIPNYNEKFKNRATLTVDTSASTAYMELSSLRSEDTAVYYCAGGYFDVWGQGTTVTVSS VL: DIVMTQSPDSLAVSLGERATINCKSSQSLLSSGNQKNYLAWYQQKPGQPPKLLIYGASTRESGVPDRFSGSGSGTDFTLTISSLQAEDVAVYYCQNDHSYPYTFGQGTKLEIK	–	–	–	–	~154	1.22	1.06e-05	330000	–
VH9K2 (antibody, V domains shown) VH: QVQLVQSGAEVKKPGSSVKVSCKASGYTFTSYWINWVKLAPGQGLEWIGDIYPGSYIPNYNEKFKNRATLTVDTSASTAYMELSSLRSEDTAVYYCAGGYFDVWGQGTTVTVSS VL: DIVMTQSPDSLAVSLGERATINCKSSQSLLSSGNQKNYLAWYQQKPGQPPKLLIYGASTRESGVPDRFTGSGSGTDFTLTISSLQAEDVAVYYCQNDHSYPYTFGQGTKLEIK	43.2	0.34	1.3e-05	301000	–	–	–	–	–
VH11K0 (antibody, V domains shown) VH: QVQLVQSGAEVKKPGSSVKVSCKASGYTFTSYWINWVRQAPGQGLEWIGDIYPGSYIPNYNEKFKNRATLTVDTSASTAYMELSSLRSEDTAVYYCAGGYFDVWGQGTTVTVSS VL: DIVMTQSPSSLSVSAGEKVTMSCKSSQSLLSSGNQKNYLAWYQQKPGQPPKLLIYGASTRESGVPDRFTGSGSGTDFTLTISSVQAEDLAVYYCQNDHSYPYTFGGGTKLEIK	–	–	–	–	101	0.8	3.19e-05	316000	–
VH10K0 (antibody, V domains shown) VH: QVQLVQSGAEVKKPGSSVKVSCKASGYTFTSYWINWVRQAPGQGLEWIGDIYPGSYIPNYNEKFKNRATLTVDTSASTAYMELSSLASEDTALYYCAGGYFDVWGQGTTVTVSS VL: DIVMTQSPSSLSVSAGEKVTMSCKSSQSLLSSGNQKNYLAWYQQKPGQPPKLLIYGASTRESGVPDRFTGSGSGTDFTLTISSVQAEDLAVYYCQNDHSYPYTFGGGTKLEIK	–	–	–	–	135	1.07	4.66e-05	345000	–
VH0K3 N28T (antibody, V domains shown) VH: QVQLQQPGAELVKPGTSVKLSCKASGYTFTSYWINWVKLRPGQGLEWIGDIYPGSYIPNYNEKFKNKATLTVDTSSSTAYMQLTSLASEDSALYYCAGGYFDVWGAGTTVTVSS VL: DIVMTQSPDSLAVSLGERATINCKSSQSLLSSGNQKNYLAWYQQKPGQPPKLLIYGASTRESGVPDRFSGSGSGTDFTLTISSLQAEDVAVYYCQNDHSYPYTFGQGTKLEIK	32.1	0.25	1.06e-05	330000	–	–	–	–	–
VH9K0 (antibody, V domains shown) VH: QVQLVQSGAEVKKPGSSVKVSCKASGYTFTSYWINWVKLAPGQGLEWIGDIYPGSYIPNYNEKFKNRATLTVDTSASTAYMELSSLRSEDTAVYYCAGGYFDVWGQGTTVTVSS VL: DIVMTQSPSSLSVSAGEKVTMSCKSSQSLLSSGNQKNYLAWYQQKPGQPPKLLIYGASTRESGVPDRFTGSGSGTDFTLTISSVQAEDLAVYYCQNDHSYPYTFGGGTKLEIK	10.3	0.08	3.09e-06	300000	–	–	–	–	–
VH10K3 as tested in Table 4 (humanized scFv variant) (scFv, V domains shown, Format as for m33) VH: QVQLVQSGAEVKKPGSSVKVSCKASGYTFTSYWINWVRQAPGQGLEWIGDIYPGSYIPNYNEKFKNRATLTVDTSASTAYMELSSLASEDTALYYCAGGYFDVWGQGTTVTVSS VL: DIVMTQSPDSLAVSLGERATINCKSSQSLLSSGNQKNYLAWYQQKPGQPPKLLIYGASTRESGVPDRFSGSGSGTDFTLTISSLQAEDVAVYYCQNDHSYPYTFGQGTKLEIK	–	–	–	–	–	–	–	–	Kd (Human CD112R (PVRIG) [2]): 197 pM; Relative Kd (against VH0K0) (Human CD112R (PVRIG) [2]): 0.64; koff (Human CD112R (PVRIG) [2]): 0.000107 s⁻¹; kon (Human CD112R (PVRIG) [2]): 545000 M⁻¹ s⁻¹
